Data: publication doi:10.1101/2021.02.28.433298
Read-outs that look alike come from different tables or passages of the source.

How the values were obtained:
[1] = molecular target: T1, CytR DBD (Escherichia coli, UniProt P0ACN7 1-67); test: NMR
T1 sequence: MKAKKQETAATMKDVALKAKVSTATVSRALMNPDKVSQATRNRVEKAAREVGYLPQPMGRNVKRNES

[2] = molecular target: T1, CytR DBD; test: fluorescence anisotropy
[3] = molecular target: T1, CytR DBD; test: fluorescence anisotropy; remark: listed apart in the source
[4] = molecular target: T1, CytR DBD; test: fluorescence anisotropy; remark: listed apart in the source

B1: udp full-site operator (CytO) (dsDNA)
DNA 1: GTAAATTTATGCAACGCATTTGCGTCATGGTG
DNA 2: CACCATGACGCAAATGCGTTGCATAAATTTAC
[1]
  binding result: binds

B2: nonspecific 14 bp (dsDNA)
DNA 1: AGCATGCTGGGGAC
DNA 2: GTCCCCAGCATGCT
[2]
  Kd: 5.7 µM

B3: udp left half-site (dsDNA)
DNA 1: ATTTATGCAACGCA
DNA 2: TGCGTTGCATAAAT
[3]
  Kd: 9.6 ± 1.8 µM

B4: nonspecific 30 bp (dsDNA)
DNA 1: GTACAGAACATGTCTAAGCATGCTGGGGAC
DNA 2: GTCCCCAGCATGCTTAGACATGTTCTGTAC
[4]
  Kd: 1.81 µM
